Measurements as given in article PMC10425845 (The EMBO Journal, 2023).
Like-named read-outs stand apart in the source and are kept apart here. One block for each molecule: values may come before it.

B5: Strep-REC114 (full-length mouse REC114 with a single N-terminal Strep-tag) (natural protein, UniProt Q9CWH4 1-259, looked up)
chain: MSEAGNVASGLGLPGEVSQWSLKRYGRFMLLDNVGSPGPSSEAAAAGSPTWKVFESSEESGSLVLTIVVSGHFFISQGQTLLEGFSLIGSKNWLKIVRRMDCLLFGTTIKNKSRMFRVQFSGESKEEALERCCGCVQTLAQYVTVQEPDSTTQELQQSQGPREAGESQGKDPLQQGPSLTLEQHVCMAAGAGVLQERTSVTHRAQSILAPEKLTLAYEGSSWGTEELGPFLRLCLMDQNFPAFVEEVEKELKKITGLRN

Columns and labels:
[1] = target: REC114 226-254-MEI4 1-43 minimal complex (mouse) (UniProt Q9CWH4); assay: AUC
[2] = target: REC114 226-254-MEI4 1-43 minimal complex (mouse) (UniProt Q9CWH4); assay: AUC; remark: listed apart in the source
[3] = target: Strep-REC114-His-MEI4 1-127 complex (mouse) (UniProt Q9CWH4); assay: SEC-MALS
[4] = target: Strep-REC114-His-MEI4 1-127 complex (mouse) (UniProt Q9CWH4); assay: native MS
SEC-MALS [5] = target: the molecule itself; assay: SEC-MALS
[6] = target: B5; assay: SEC
SEC-MALS [7] = target: the molecule itself; assay: SEC-MALS; remark: listed apart in the source
MEI4 1-43 (untagged) = target: T1, MEI4 1-43 (untagged) (mouse, UniProt Q8BRM6 1-43); assay: AUC
T1 chain (looked up): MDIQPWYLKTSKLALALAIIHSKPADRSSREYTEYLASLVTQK

[8] = target: Strep-REC114-His-MEI4 1-127 complex (mouse) (UniProt Q9CWH4); assay: ITC
[9] = target: T2, Strep-REC114 1-159 (PH domain) (mouse, UniProt Q9CWH4 1-159); assay: ITC
T2 sequence (looked up): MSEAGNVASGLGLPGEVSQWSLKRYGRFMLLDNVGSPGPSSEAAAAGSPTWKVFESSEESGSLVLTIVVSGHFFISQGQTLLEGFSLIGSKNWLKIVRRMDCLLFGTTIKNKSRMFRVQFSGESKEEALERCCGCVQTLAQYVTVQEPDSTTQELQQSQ

[10] = target: B5; assay: pull-down
His-MEI4 1-127 [11] = target: T3, His-MEI4 1-127 (mouse, UniProt Q8BRM6 1-127); assay: SEC-MALS
T3 sequence (looked up): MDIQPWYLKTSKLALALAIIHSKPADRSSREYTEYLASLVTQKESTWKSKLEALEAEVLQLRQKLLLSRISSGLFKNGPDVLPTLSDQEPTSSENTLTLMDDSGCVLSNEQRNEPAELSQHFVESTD

SEC-MALS [12] = target: the molecule itself; assay: SEC-MALS; remark: listed apart in the source
His-MEI4 1-127 [13] = target: T3, His-MEI4 1-127; assay: native MS
His-MBP-IHO1 1-281 = target: T4, His-MBP-IHO1 1-281 (mouse, UniProt Q6PDM4 1-281); assay: SEC
T4 sequence (looked up): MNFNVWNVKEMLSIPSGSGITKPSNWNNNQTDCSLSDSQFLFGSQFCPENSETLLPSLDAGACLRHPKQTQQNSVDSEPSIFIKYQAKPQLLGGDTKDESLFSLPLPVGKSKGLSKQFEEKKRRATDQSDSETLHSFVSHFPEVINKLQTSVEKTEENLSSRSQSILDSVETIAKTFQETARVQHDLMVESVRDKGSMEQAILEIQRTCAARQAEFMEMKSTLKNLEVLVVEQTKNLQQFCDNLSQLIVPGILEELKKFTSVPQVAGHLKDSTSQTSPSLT

His-Sumo-IHO1 1-281 = target: T5, His-Sumo-IHO1 1-281 (mouse, UniProt Q6PDM4 1-281); assay: SEC
T5 sequence (looked up): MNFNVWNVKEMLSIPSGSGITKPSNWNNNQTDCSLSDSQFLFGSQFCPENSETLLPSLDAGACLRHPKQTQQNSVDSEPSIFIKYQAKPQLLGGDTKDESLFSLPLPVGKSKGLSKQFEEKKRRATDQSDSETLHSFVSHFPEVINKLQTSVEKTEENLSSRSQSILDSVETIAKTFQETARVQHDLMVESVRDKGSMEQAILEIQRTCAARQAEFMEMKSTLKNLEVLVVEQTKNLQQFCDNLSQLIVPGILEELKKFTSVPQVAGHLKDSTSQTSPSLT

stoichiometry N [1]: 2
stoichiometry N [2]: 2
Molecule: REC114 226-254-MEI4 1-43 minimal complex (from UniProt Q9CWH4 226-254; Q8BRM6 1-43)

stoichiometry N [3]: 2
stoichiometry N [4]: 2
Molecule: Strep-REC114-His-MEI4 1-127 complex (from UniProt Q9CWH4 1-259; Q8BRM6 1-127)

B1: IHO1 125-281 (domain or fragment, mouse, UniProt Q6PDM4 125-281, looked up)
chain: ATDQSDSETLHSFVSHFPEVINKLQTSVEKTEENLSSRSQSILDSVETIAKTFQETARVQHDLMVESVRDKGSMEQAILEIQRTCAARQAEFMEMKSTLKNLEVLVVEQTKNLQQFCDNLSQLIVPGILEELKKFTSVPQVAGHLKDSTSQTSPSLT
stoichiometry N (SEC-MALS [5]): 4

binding result [6]: binds
B2: TOPOVIBL 452-579 (domain or fragment, mouse, UniProt J3QMY9 452-579, looked up)
chain: SCDTEQHLTPEKNISAQNTKDQHKNIAQEFPEESIGQAENKRPKRGSPNHGREESRVLGSARDRSPPKSATRDRELTEVSLTARGSQTQAAHGRAQAAEAASPAGGLEDLWLQEVSNLSEWLNPGHRS

Molecule: WGTEEDGPFLRLCLMDQNFPAFVEEVEKELKKITG (domain or fragment, mouse, UniProt Q9CWH4 222-256, looked up) [His-MBP-REC114 222-256 L227D]
binding result (SEC-MALS [7]): binds

stoichiometry N (MEI4 1-43 (untagged)): 2
Molecule: ELGPFLRLCLMDQNFPAFVEEVEKELKKI (domain or fragment, mouse, UniProt Q9CWH4 226-254, looked up) [REC114 226-254 (untagged)]

Molecule: ELGPFLRLCLMDQNFPAFVEEVEKELKKI (domain or fragment, mouse, UniProt Q9CWH4 226-254, looked up) [His-MBP-REC114 226-254]
stoichiometry N (SEC-MALS [7]): 2

Kd [8]: 31.9 µM
Kd [9]: 30.4 µM
Molecule: MNFNVWNVKEMLSIPSGSGITKP (domain or fragment, mouse, UniProt Q6PDM4 1-23, looked up) [His-MBP-IHO1 1-23]

B3: IHO1 125-261 (domain or fragment, mouse, UniProt Q6PDM4 125-261, looked up)
chain: ATDQSDSETLHSFVSHFPEVINKLQTSVEKTEENLSSRSQSILDSVETIAKTFQETARVQHDLMVESVRDKGSMEQAILEIQRTCAARQAEFMEMKSTLKNLEVLVVEQTKNLQQFCDNLSQLIVPGILEELKKFTS
stoichiometry N (SEC-MALS [5]): 4

B4: MBP-IHO1 125-261 (MBP joined by a five-residue linker) (domain or fragment, mouse, UniProt Q6PDM4 125-261, looked up)
chain: ATDQSDSETLHSFVSHFPEVINKLQTSVEKTEENLSSRSQSILDSVETIAKTFQETARVQHDLMVESVRDKGSMEQAILEIQRTCAARQAEFMEMKSTLKNLEVLVVEQTKNLQQFCDNLSQLIVPGILEELKKFTS
stoichiometry N (SEC-MALS [5]): 4

binding result [10]: binds
Molecule: MDIQPWYLKTSKLALALAIIHSKPADRSSREYTEYLASLVTQK (domain or fragment, mouse, UniProt Q8BRM6 1-43, looked up) [His-MBP-MEI4 1-43]

Molecule: B5
stoichiometry N (His-MEI4 1-127 [11]): 2
binding result (SEC-MALS [12]): binds
stoichiometry N (His-MEI4 1-127 [13]): 1
binding result (His-MBP-IHO1 1-281): binds
binding result (His-Sumo-IHO1 1-281): binds

Molecule: GSMEQAILEIQRTCAARQAEFMEMKSTLKNLEVLVVEQTKNLQQFCDNLS (domain or fragment, mouse, UniProt Q6PDM4 196-245, looked up) [IHO1 196-245]
stoichiometry N (SEC-MALS [5]): 4

Kd [8]: 26.9 µM
B6: IHO1 1-281 (domain or fragment, mouse, UniProt Q6PDM4 1-281, looked up)
chain: MNFNVWNVKEMLSIPSGSGITKPSNWNNNQTDCSLSDSQFLFGSQFCPENSETLLPSLDAGACLRHPKQTQQNSVDSEPSIFIKYQAKPQLLGGDTKDESLFSLPLPVGKSKGLSKQFEEKKRRATDQSDSETLHSFVSHFPEVINKLQTSVEKTEENLSSRSQSILDSVETIAKTFQETARVQHDLMVESVRDKGSMEQAILEIQRTCAARQAEFMEMKSTLKNLEVLVVEQTKNLQQFCDNLSQLIVPGILEELKKFTSVPQVAGHLKDSTSQTSPSLT
stoichiometry N (SEC-MALS [5]): 4
